Assay results reported in a protein production outcome set (Wang et al. 2014).

Assay: label from the status in PepcDB records

Row | Sequence | protein production
1 | MKIRHVSHQAWLLFLVALLVLGSGLGLRDPHPADEPRFALVAKQMVDSGEWLFPHRGNELYSDKPPMLMWLQAAFYTLFGNLKVAFLLPSLLAALGTLVCVYDLGRRLWTRRIGLYAAYALLFTFHFTYQAKRAQIDALVVFFITFANYGLLRHLLFGGHWRWWVLGWFAAGLGTITKGVGALALLIVLPAAAASLAGWPRVRVHVRDVRFWLGPLGFLVAVSLWLVPMVMTALSAQQPEYRAYLNDILLRQTFGRYTKSWDHAQPPWYFLQVMLVMWIPTLLALPWALPAWWRRMRRRDPRYLLPLAWCVLLLVFFSIPSGKRDVYMLPALPMVCLALAPLLPGLLRKRACSRLLLAFGVLLVLVLAVFGAGLLIRSDWQARMMEGTTLILEDVRVIAWGGIAVASWGVFSLLAFSQRRPVVAVFSVLTTLWLVFGLVLMPVVNDSSSARGVMMIAGKRIGPAAELGLVAWKEQNLLMADRSVATFGFLVPWDEQLRRGIAWQVQRPRQRWLLVQEAAMFGCINRSASVFVGSSNRRAWWLVPAWAVHGACIMTQAEHDRLSKQ | failed
2 | MLTFEKVLEIFADYLTADETIEVYISRHGCVRVEFDQDFHYCSGEVCHTPKELFNLLADDYRTYVEIELTKGRRELTEDDEREADALCKRHLERWREKLE | failed
3 | MNKKRTVDLIHGPILPSLLSFTFPILLSNIFQQLYNTADVLIVGRFLGQESLAAVGATTAIFDLIVGFTLGVGNGMGIVIARYYGARNFTKIKEAVAATWILGALLSILVMLLGFLGLYPLLQYLDTPAEILPQSYQYISMIVTCVGVSFAYNLFAGLLRSIGDSLAALGFLIFSALVNVVLDLYFITQLHLGVQSAGLATIISQGLSAVLCFYYIRKSVPELLPQFKHFKWDKSLYADLLEQGLAMGLMSSIVSIGSVILQFSVNTFGAVIISAQTAARRIMTFALLPMTAISASMTTFASQNLGAKRPDRIVQGLRIGSRLSISWAVFVCIFLFFASPALVSFLASSTDGYLIENGSLYLQISSTFYPILSLLLIYRNCLQGLGQKILPLVSSFIELIGKIVFVVLIIPWAGYKGVILCEPLIWVAMTVQLYFSLFRHPLIKEGKAILATKVQS | failed
4 | MKALVVSDDINFLKQACTLVNGKAEYDAVYVGEGRVSGVGASTLYTVKKGTPYDAVADGILEIMGNYDIIVAGSTEFGREVAGYIAGKTGYYAATEIFSLEFSNGKAKTKRFFYGGKTVIEEESDAKVFTVAPGVIEAKEFESKPEEKDLPIKPSKVRVNKVVPKNAGGVR | failed
5 | MLIRKADAQDLDAICRLAAQINRQHHQALPELFLAAADADADRAFWRARLEGEDSVLLVAEREGAVLAFLTAQLQSSPPLPFLQARRICRIGTIVVDEACQGQGIGSRLLAAAEDWGRRQDADELRLEVMQFNQGALAFYARHGLAAQSQIMSKSLAGAAR | failed
6 | MASPAAGDVLIVGSGLVGRSWAMLFASGGFRVKLYDIEPRQITGALENIRKEMKSLQQSGSLKGSLSAEEQLSLISSCTNLAEAVEGVVHIQECVPENLDLKRKIFAQLDSIVDDRVVLSSSSSCLLPSKLFTGLAHVKQCIVAHPVNPPYYIPLVELVPHPETSPATVDRTHALMRKIGQSPVRVLKEIDGFVLNRLQYAIISEAWRLVEEGIVSPSDLDLVMSDGLGMRYAFIGPLETMHLNAEGMLSYSDRYSEGMKRVLKSFGSIPEFSGATVEKVNQAMCKKGPADPEHLAARREWRDECLKRELAKLKRQMQPQ | not failed
7 | MKQILTYLLFIWILLPLKAEEKIYTVDNIPKVHLQNKMQYVCNPAGILSQQACDEIDAMLYALEQQTGIETVVAIVPSIGDKDCFEFSHQLLNQWGVGKKGKDNGLVILLVTDQRCIQFYTGYGLEGILPDAICKRIQMQEMIPYLKKGEWNQGMLAGVKAVCQRLDGSMVNDDEGRGEEGISVSMLLVVILGFITIAGVVGTLAVRASTRCPKCGKHQLQRSSTKLISNRNGVKTEDIIYTCRNCGHTVVRRQQSYDDNYRGRGGGGPFIGGFGGGSFGSGGGGGFSGGSFGGGSGGGGGAGSRFLEHHHHHH | failed
8 | VIWNQLDARERLERQNDLFRRAQKLANIGAWEYEVSSGEVFWTRQVREIHGLPQGYEPTAEEAIAAYHPEDQPVIQGMIERAVEEEVPFDRELRLGGEALPVGHEQKEGRWVRARGTPQIEAGEVTSVRGTFQDITERKAREHVLENEREALRSMYRITADREAGFEEKARRLIDLGREHLGLPYGFLTRITDETQEIVFASGTHPLLQPGESCPLSRSYCRNTIQEERSLVVQDAVAEGWAGDPAHQTFELGAYVGAQIIVEGELYGTFCFAAEEPREQAFAGRERVFVELMAQWASYELGQRRAKAQLKRQNARLDSFAGLVAHDLRNPLNVATGRLRLAREER | failed
9 | MLDLKSYREKELASYDLDVELFNEFNFSVYNVMPLRKAFLISTDKGEKILKKIDYTIEEFKFVLAAVNYIKNENEFNRIIDFNKTQSGEYYCIKNGDLYCVMDMIEGKECEFSNPVDLSISSFGLGQLHSASEGFRYSKIASKNICGKMIKGFKRKKEEVNFLKKMVNLYESLNEFDEIFIKNVDYYLEQIDKSIDIMNKSQYYKLCSEEDKIVLCHHDLAHHNIIIKDEEAYFIDFDYAIIDLKVHDLSNIISKAAKVFNYSIDNSKIIISNYCKSNTLSKNEMEVLFGMLSFPEDFYEIVKSYYTKRKDWSNEEFINKMKRKMANEENRVEFLKNFKEDLKI | failed
10 | MLVGNYDATLVLTSLFVAILASYTALGMAGRVAASRGVAARVWLGGGAFAMGLGIWSMHFIGMLAFSLPIPLGYDVALTVASMALAVACSAFALWVVTRATLPWRRLAGAAALMGTGIAAMHYTGMAAMRMHPAIEYSPALFMLSVAVAIVASGAALWITHALRHNRPGAPAYRICAAIVMGLAIVGMHYTGMAAANFPQGSVCMAANSGISAGWLAVSTAAVTLAVLAVALVVAVLDTRLETRTSALNASLAQANEELVQMALHDTLTKLPNRALLDERLKQAIIRATAAGRGFSLLFIDLDGFKAINDAYGHGAGDLLLVEMAQRIKRAMRPQDCVARLGGDEFVVLADLPDPNDAAGLAERLIDTLTVPAEVQGHEVSVAASIGIALFPGDGADASTLLAHADAAMYHAKRLSQTHRVSFFEPSMNEDALEQLQLLQDLRLALPRNQLELHYQPKFVAPAGPVVGAEALLRWNHPTRGVIGPTVFIPIAERTGLIFSIGAWVLDEACRQMRQWRDMGHADWTVAVNLSSLQFSQPDLIDSIRATLARHDLPPRCLAIEITESTAMRDAEASLTVLRELAELGVSISIDDFGTGYSSLLYLKRLPATELKIDRGFVNQLEHDNEDAAIVSAIIALGQKLNLKIVAEGVETLAQQSFLTEMGCDSLQGFLLGRPLPAAEFLAHTLQPQLA | failed
11 | MSLETFHYIANQLSGIFNFNGEPLATALIILGLAILSIMILAGLIYGAIKVVKAVPNMPFKQFIIVMLMIAVFLVIVGVLIP | failed
12 | MNKRLFYYLFAVLCTVTLFTSCSDDDGDDTPTVIPIEQEIAGDYKGTMDVYYVGVPDPIASGLSQKVYVTKASDTAVKLELRDFVFFLGSEELNLGTIAVENCPVTVEGTSYKFSGNQKMTLLVGDCDVAVSGTIGSGNLAMIVDVKVGGGTLQVKVDYKGTKLAGTESTEAKILSFTFDKSVEANAVVFSEPIVNEEDGTIVFEVLKDVTTDDLKKLVPTIEVSAKATVTPASGATVDFSSNKAIFTVVAEDGSSKIYTASISGRAFVVSYDFEEWDPVTHKPMLGNEETFTTPTGWCTSNYGIVEMGMFKPMLGVSGWLVTEESEGHNGKSALLRTINSKGGVGGLIPTITTGSLFLGTWSTNAGNTLNSTKFGNQFNNSLGRPVAVKGWYKYESGKDFYTCESDATDKATIDVSKGEYADQYSIKVSLYTTEEYDETGFSDYLTGESGDNNFYTSSRVVAKGGVEGGSTDGQWKEFTITLDYGDAEFDINQKYRFAIVCSSSKEGDKFWGAPESKLWVDDIEVIYKK | failed
